In patent US20220010004A1 (published 2022):

B1: tau peptide HQPGG (peptide)
peptide: HQPGG
B2: tau peptide HVPGG (peptide)
peptide: HVPGG
B3: peptide HVPGGGSVQ (peptide)
peptide: HVPGGGSVQ
B4: peptide DNIKHAPGGGS (peptide)
peptide: DNIKHAPGGGS
notes: Alanine mutant of tau 295-305
B5: peptide DAIKHVPGGGS (peptide)
peptide: DAIKHVPGGGS
notes: Alanine mutant of tau 295-305
B6: peptide IKHVPGGGS (peptide)
peptide: IKHVPGGGS
B7: tau peptide QPGGG (peptide)
peptide: QPGGG
B8: tau peptide VPGGG (peptide)
peptide: VPGGG
B9: peptide NIKHVPGGGS (peptide)
peptide: NIKHVPGGGS
B10: peptide NIKAVPGGGS (peptide)
peptide: NIKAVPGGGS
notes: Tau-derived peptide with histidine 299 changed to alanine
B11: tau peptide DNIKHVPGGGSVQIVYKPV (peptide)
peptide: DNIKHVPGGGSVQIVYKPV
notes: also called 19-mer
B12: designer therapeutic epitope 1 GWSIHSPGGGSC (peptide)
peptide: GWSIHSPGGGSC
notes: Designed peptide
B13: tau peptide ENLKHQPGGGKVQIINKKLDLSNVQSKCGSKDNIKHVPGGGS (peptide)
peptide: ENLKHQPGGGKVQIINKKLDLSNVQSKCGSKDNIKHVPGGGS
notes: also called 42-mer
B14: peptide ANIKHVPGGGS (peptide)
peptide: ANIKHVPGGGS
notes: Alanine mutant of tau 295-305
B15: peptide DNIAHVPGGGS (peptide)
peptide: DNIAHVPGGGS
notes: Alanine mutant of tau 295-305
B16: peptide KHVPGGGSV (peptide)
peptide: KHVPGGGSV
B17: tau peptide KHVPGGG (peptide)
peptide: KHVPGGG
B18: tau peptide THVPGGG (peptide)
peptide: THVPGGG
B19: tau peptide KHQPGGG (peptide)
peptide: KHQPGGG
B20: peptide DNIKAVPGGGS (peptide)
peptide: DNIKAVPGGGS
notes: Alanine mutant (H299A) of tau 295-305
B21: monoclonal antibody DC8E8 (antibody, mouse IgG1, V domains shown)
VH: QVQLQQSGPELVKPGTSVKMPCKASGYIFTDYVISWVKQRTGQGLEWIGEIFPRSGSTYYNEKFKGKATLTADKSSNTAYMQLSSVTSEDSAVYFCARDYYGTSFAMDYWGQGTSVTVSS
VL: DIVMSQSPSSLAVSAGEKVTMSCKSSQSLLNSRTRKNYLAWYQQKPGQSPKLLIYWASTRESGVPDRFTGSGSGTDFTLTISSVQAEDLAVYYCKQSFYLRTFGGGTKLDIK
notes: Mouse IgG1 with kappa light chain, from hybridoma ATCC PTA-11994; also called mAb DC8E8
B22: designer therapeutic epitope 2 SVFQHLPGGGSC (peptide)
peptide: SVFQHLPGGGSC
notes: Designed peptide
B23: tau peptide TENLKHQPGGGK (peptide)
peptide: TENLKHQPGGGK
B24: tau peptide HQPGGG (peptide)
peptide: HQPGGG
B25: tau peptide HKPGGG (peptide)
peptide: HKPGGG
B26: tau peptide HVPGGG (peptide)
peptide: HVPGGG
B27: peptide DNAKHVPGGGS (peptide)
peptide: DNAKHVPGGGS
notes: Alanine mutant of tau 295-305
B28: tau peptide HHKPGGG (peptide)
peptide: HHKPGGG

What was measured:
[1] = target: B21; test: competition ELISA against coated tauΔ(1-150;392-441)/4R
[2] = target: B21; test: competition ELISA; competitor: coated tauΔ(1-150;392-441)/4R
tau peptide 301-330 = target: T1, tau peptide 301-330 (human); test: ELISA, coated peptide (5 µg/ml), hybridoma supernate
T1 construct: Synthetic; Built from 2N4R numbering
T1 peptide: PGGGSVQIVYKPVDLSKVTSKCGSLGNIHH
Protocol: (§1) Microtiter plates were coated overnight at 37° C. with either recombinant tau proteins or with tau peptides (5 μg/ml in PBS, 50 μl/well). […] Bound monoclonal antibody was detected with sheep anti-mouse Ig HRP-conjugated (DAKO). The reaction was developed with orthophenylenediamine Solution as a peroxidase substrate and stopped with 50 μl of 2 M H₂SO₄. Absorbance was measured at 492 nm using a Multiscan MCC/340 ELISA reader (Labsystems). Readouts with an absorbance value of at least twice the value of the negative controls (PBS) were considered positive.

tau peptide 240-270 = target: T2, tau peptide 240-270 (human); test: as above
T2 construct: Synthetic; Built from 2N4R numbering
T2 peptide: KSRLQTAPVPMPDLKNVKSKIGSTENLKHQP
Protocol: as §1

tau peptide 270-300 = target: T3, tau peptide 270-300 (human); test: as above
T3 construct: Synthetic; Built from 2N4R numbering
T3 peptide: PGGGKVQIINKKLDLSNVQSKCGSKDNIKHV
Protocol: as §1

tauΔ257-400 = tauΔ257-400 (human, UniProt P10636 1-758); test: ELISA, coated tau (5 µg/ml), hybridoma supernate
tauΔ257-400, sequence (P10636 other isoform, or with tags, fused parts or gaps mutant): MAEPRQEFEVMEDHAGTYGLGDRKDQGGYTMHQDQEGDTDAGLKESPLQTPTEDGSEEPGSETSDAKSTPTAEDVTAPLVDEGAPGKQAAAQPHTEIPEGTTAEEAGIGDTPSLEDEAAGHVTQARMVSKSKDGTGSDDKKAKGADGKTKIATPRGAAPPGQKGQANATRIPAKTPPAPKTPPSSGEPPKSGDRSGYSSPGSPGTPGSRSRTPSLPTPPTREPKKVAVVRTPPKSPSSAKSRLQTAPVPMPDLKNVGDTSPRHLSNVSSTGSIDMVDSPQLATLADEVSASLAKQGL
Protocol: as §1

tauΔ137-441 = tauΔ137-441 (human, UniProt P10636 1-387); test: ELISA, coated tau (5 µg/ml), hybridoma supernate
tauΔ137-441, sequence (P10636 other isoform, or with tags, fused parts or gaps mutant): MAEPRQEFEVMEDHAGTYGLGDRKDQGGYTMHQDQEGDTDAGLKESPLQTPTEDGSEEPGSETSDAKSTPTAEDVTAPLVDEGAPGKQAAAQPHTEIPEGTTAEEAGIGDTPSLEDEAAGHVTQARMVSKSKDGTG
Protocol: as §1

tauΔ228-441 = target: T4, tauΔ228-441 (human, UniProt P10636 1-544); test: ELISA, coated tau (5 µg/ml), hybridoma supernate
T4 construct: also called C-terminally truncated tau protein
T4 sequence (P10636 other isoform, or with tags, fused parts or gaps mutant): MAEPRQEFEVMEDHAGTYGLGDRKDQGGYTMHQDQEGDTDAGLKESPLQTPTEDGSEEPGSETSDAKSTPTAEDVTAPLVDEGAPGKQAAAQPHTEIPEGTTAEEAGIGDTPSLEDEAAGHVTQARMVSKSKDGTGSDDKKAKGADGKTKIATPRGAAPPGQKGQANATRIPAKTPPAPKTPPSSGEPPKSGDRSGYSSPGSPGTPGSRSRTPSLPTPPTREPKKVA
Protocol: as §1

tauΔ283-441 = tauΔ283-441 (human, UniProt P10636 1-599); test: ELISA, coated tau (5 µg/ml), hybridoma supernate
tauΔ283-441, sequence (P10636 other isoform, or with tags, fused parts or gaps mutant): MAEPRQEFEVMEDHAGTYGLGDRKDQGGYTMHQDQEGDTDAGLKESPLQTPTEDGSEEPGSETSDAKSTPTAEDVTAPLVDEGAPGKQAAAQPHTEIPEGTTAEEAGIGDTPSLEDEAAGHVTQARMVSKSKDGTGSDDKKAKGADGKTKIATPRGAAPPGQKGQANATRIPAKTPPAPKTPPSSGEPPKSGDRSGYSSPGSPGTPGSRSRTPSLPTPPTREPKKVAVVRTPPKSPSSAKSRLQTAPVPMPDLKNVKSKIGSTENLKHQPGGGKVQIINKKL
Protocol: as §1

tauΔ300-312 = tauΔ300-312 (human, UniProt P10636 1-758); test: ELISA, coated tau (5 µg/ml), hybridoma supernate
tauΔ300-312, sequence (P10636 other isoform, or with tags, fused parts or gaps mutant): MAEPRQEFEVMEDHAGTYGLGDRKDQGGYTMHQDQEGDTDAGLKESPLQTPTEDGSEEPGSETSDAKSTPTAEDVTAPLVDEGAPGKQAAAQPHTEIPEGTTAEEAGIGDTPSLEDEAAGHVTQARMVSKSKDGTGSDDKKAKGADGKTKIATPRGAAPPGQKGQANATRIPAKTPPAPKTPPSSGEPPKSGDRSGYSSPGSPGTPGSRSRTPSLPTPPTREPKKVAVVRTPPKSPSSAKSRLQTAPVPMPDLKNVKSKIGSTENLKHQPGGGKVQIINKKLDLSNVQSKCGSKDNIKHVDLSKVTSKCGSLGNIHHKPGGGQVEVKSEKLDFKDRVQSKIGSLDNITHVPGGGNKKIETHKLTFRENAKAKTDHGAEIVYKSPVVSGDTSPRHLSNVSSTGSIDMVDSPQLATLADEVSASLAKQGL
Protocol: as §1

tauΔ306-400 = tauΔ306-400 (human, UniProt P10636 1-758); test: ELISA, coated tau (5 µg/ml), hybridoma supernate
tauΔ306-400, sequence (P10636 other isoform, or with tags, fused parts or gaps mutant): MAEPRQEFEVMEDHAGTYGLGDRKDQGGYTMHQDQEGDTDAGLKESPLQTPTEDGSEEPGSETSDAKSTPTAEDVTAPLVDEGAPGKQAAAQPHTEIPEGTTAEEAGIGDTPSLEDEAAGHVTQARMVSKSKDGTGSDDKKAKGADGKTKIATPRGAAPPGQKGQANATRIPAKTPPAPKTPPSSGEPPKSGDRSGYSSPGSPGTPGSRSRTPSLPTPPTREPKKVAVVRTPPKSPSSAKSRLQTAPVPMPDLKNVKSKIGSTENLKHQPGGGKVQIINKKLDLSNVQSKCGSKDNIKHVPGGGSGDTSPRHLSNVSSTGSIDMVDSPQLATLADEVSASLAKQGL
Protocol: as §1

tauΔ222-427 = tauΔ222-427 (human, UniProt P10636 1-758); test: ELISA, coated tau (5 µg/ml), hybridoma supernate
tauΔ222-427, sequence (P10636 other isoform, or with tags, fused parts or gaps mutant): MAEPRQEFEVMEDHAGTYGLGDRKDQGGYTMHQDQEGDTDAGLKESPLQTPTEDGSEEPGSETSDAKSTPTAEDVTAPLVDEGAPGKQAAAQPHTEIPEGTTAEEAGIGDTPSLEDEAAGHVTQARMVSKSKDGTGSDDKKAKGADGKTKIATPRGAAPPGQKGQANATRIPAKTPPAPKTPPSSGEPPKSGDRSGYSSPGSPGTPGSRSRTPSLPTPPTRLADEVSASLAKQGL
Protocol: as §1

tauΔ(1-150; 392-441)/4R = target: T5, tauΔ(1-150; 392-441)/4R (human, UniProt P10636 468-708); test: SPR (Biacore), DC8E8 captured, tau injected
T5 construct: Also the transgene of SHR72 rats; also called tau 151-391/4R; misdisordered tau
T5 sequence (P10636 other isoform, or with tags, fused parts or gaps mutant limits assumed): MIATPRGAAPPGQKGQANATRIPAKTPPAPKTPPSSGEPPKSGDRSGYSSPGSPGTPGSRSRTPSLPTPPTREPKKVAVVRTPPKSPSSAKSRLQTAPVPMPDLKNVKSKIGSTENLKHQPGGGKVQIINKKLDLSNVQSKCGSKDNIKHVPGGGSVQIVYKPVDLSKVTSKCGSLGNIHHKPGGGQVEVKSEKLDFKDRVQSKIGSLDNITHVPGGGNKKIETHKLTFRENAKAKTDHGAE
Protocol: (§2) A BIACORE3000 instrument with a CMS sensor chip (Biacore AB, Uppsala) was used for the SPR assays. Amine-coupling reagents (EDC, NHS, ethanolamine pH 8.5), P20 detergent, and 10 mM sodium acetate pH 5.0 were obtained from Biacore AB. These experiments were done at 25° C. in PBS pH 7.4 with 0.005% of P20 (PBS-P) as the running buffer.
(§3) Kinetic rate constants were approximated globally, maximal responses were fitted locally, and the bulk response was set to zero.

[3] = target: T6, human full-length tau isoform 2N4R (human, UniProt P10636 1-758); test: SPR (Biacore), DC8E8 captured, tau injected
T6 construct: Recombinant, E. coli; also called tau 2N4R; tau441
T6 sequence (P10636 other isoform, or with tags, fused parts or gaps limits assumed): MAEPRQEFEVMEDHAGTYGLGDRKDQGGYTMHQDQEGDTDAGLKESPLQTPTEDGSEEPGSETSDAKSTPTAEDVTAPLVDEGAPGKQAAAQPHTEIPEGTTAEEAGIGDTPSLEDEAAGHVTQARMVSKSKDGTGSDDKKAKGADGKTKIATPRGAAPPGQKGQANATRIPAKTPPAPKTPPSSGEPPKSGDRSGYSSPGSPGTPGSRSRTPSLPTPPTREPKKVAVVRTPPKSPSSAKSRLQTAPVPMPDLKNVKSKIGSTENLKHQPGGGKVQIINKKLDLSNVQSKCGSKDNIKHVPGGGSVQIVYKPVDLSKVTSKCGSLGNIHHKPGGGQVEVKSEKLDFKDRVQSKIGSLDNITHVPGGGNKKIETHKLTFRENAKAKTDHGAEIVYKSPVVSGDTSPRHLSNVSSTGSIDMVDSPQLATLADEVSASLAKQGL
Protocol: as §2, §3

| Binder | binding result [2] | other results |
| --- | --- | --- |
| B1 |  | binding result [1]: no binding |
| B2 |  | binding result [1]: no binding |
| B3 | binds |  |
| B4 | binds |  |
| B5 | binds |  |
| B6 | binds |  |
| B7 |  | binding result [1]: no binding |
| B8 |  | binding result [1]: no binding |
| B9 | binds |  |
| B10 |  | binding result [1]: no binding (tested: 40 µM) |
| B11 | binds |  |
| B12 | binds |  |
| B13 | binds |  |
| B14 | binds |  |
| B15 | binds |  |
| B16 | binds |  |
| B17 | binds |  |
| B18 | binds |  |
| B19 | binds |  |
| B20 |  | binding result [1]: no binding (tested: 160 µM) |
| B21 |  | binding result (tau peptide 301-330): no binding; binding result (tau peptide 240-270): no binding; binding result (tau peptide 270-300): no binding; binding result (tauΔ257-400): no binding; binding result (tauΔ137-441): no binding; binding result (tauΔ228-441): no binding; binding result (tauΔ283-441): no binding; binding result (tauΔ300-312): no binding; binding result (tauΔ306-400): no binding; binding result (tauΔ222-427): no binding; fold lower kOFF of four-repeat tau species (tauΔ(1-150; 392-441)/4R): 10 fold; fold lower kOFF of four-repeat tau species [3]: 10 fold |
| B22 |  | affinity for DC8E8 relative to tauΔ(1-150; 392-441)4R [2]: > 10 fold |
| B23 | binds |  |
| B24 | binds |  |
| B25 | binds |  |
| B26 | binds |  |
| B27 | binds |  |
| B28 | binds |  |
